Reference: US7122624B2, “Parathyroid hormone receptor ligands” (The United States of America as represented by the …, priority 1999, dated 2006)

What was measured:
human PTH2 receptor = biological target: T1, human PTH2 receptor (Homo sapiens, UniProt P49190); test: cAMP accumulation in COS-7 cells transiently expressing the human PTH2 receptor; assay type: cell-based; details: COS-7
T1 construct: expressed in transfected cells; host or cells: COS-7 (transient)
Excerpt: (§1) Cell culture supplies were obtained from Life Technologies (Frederick, Md.) except for fetal bovine serum which was from Sigma (St. Louis, Mo.).
(§2) The constructs containing the cDNA sequences of the human PTH2 receptor and β-galactosidase have been previously described.
(§3) All peptides were purchased from either Bachem (Torrance, Calif.) or Peninsula Laboratories (Belmont, Calif.). The letters ‘b,’ ‘r’ and ‘h’ designate the peptide sequence as bovine, rat and human, respectively. […] [α-^32P]dCTP was purchased from ICN Biomedicals (Costa Mesa, Calif.). Bovine hypothalamic extract was prepared by acid extraction, gel-filtration and reverse-phase HPLC as previously described. […] Antagonist inhibitory potency was examined by measuring the concentration-dependence of rPTH(1–34)-stimulated cAMP accumulation in the presence and absence of antagonist.
(§4) Statistical comparison of two sample means was evaluated using the two-tailed Student's t-test. […] Antagonist inhibitory potency was quantified using the pA2, value, the negative logarithm of the concentration of antagonist that produces a two-fold decrease of agonist EC50. This was calculated using the following equation: pA2=((EC50/EC50′)−1)−log [antagonist]

rat PTH2 receptor = biological target: T2, rat PTH2 receptor (Rattus norvegicus, UniProt P70555); test: cAMP accumulation in COS-7 cells transiently expressing the rat PTH2 receptor; assay type: cell-based
T2 construct: expressed in transfected cells; host or cells: COS-7 (transient)
Protocol: To express rat PTH2 receptor in cell culture, a rat hypothalamus cDNA library was prepared in the vector CDM7 amp as described. […] A clone was isolated from a single positive pool by colony hybridization using the same ^32P labeled probe.
as §1, §2, §3, §4

T2 sequence (P70555 25-546): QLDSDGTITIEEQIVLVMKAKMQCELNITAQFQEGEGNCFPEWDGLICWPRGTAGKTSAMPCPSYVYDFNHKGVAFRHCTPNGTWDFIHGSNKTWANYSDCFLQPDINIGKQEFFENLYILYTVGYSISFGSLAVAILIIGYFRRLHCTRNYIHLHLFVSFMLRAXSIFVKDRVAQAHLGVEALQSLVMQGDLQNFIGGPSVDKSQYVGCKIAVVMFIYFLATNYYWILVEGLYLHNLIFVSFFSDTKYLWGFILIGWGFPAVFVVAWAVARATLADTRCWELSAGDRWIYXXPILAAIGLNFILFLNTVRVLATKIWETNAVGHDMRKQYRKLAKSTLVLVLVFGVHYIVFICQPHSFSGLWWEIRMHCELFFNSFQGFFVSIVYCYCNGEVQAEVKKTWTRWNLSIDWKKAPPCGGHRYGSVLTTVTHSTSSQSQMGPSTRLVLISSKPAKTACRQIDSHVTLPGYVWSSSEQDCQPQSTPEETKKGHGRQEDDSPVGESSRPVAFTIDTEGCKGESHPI
T1 sequence (P49190 25-550): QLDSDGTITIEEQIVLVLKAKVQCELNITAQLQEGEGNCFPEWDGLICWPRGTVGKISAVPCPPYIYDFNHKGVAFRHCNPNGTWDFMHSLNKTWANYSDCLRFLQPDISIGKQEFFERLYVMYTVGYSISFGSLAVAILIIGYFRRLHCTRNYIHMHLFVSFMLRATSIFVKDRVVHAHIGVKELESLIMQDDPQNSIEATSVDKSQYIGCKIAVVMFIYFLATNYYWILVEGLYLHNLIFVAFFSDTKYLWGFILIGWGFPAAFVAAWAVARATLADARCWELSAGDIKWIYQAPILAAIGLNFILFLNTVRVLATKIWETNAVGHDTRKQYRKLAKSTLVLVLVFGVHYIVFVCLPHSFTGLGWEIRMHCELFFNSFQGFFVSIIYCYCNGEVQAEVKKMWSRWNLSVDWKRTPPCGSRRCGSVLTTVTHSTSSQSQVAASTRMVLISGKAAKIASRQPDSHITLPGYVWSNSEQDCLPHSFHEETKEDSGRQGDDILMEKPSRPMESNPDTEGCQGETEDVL

B1: rPTH(1-84): rat full-length parathyroid hormone (1–84), purchased (peptide)
peptide: AVSEIQLMHNLGKHLASVERMQWLRKKLQDVHNFVSLGVQMAAREGSYQRPTKKEENVLVDGNSKSLGEGDKADVDVLVKAKSQ
EC50 (human PTH2 receptor; activation of adenylyl cyclase, figures in brackets): 0.58 nM | −logEC50 (human PTH2 receptor; activation of adenylyl cyclase, mean ± s.e.m. of three or four experiments): 9.24 ± 0.05 | Emax, % of response to 1 μM hPTH(1-34) (human PTH2 receptor; intrinsic activity): 98 ± 4% | EC50 (rat PTH2 receptor; activation of adenylyl cyclase, COS-7, figures in brackets): 19 nM | −logEC50 (rat PTH2 receptor; activation of adenylyl cyclase, COS-7, mean ± s.e.m. of three or four experiments): 7.72 ± 0.12 | Emax, % of response of rPTH2r to 3 μM rPTH(1-34) (rat PTH2 receptor; intrinsic activity, COS-7): 97 ± 5% | Emax, % of response of hPTH2r to 1 μM hPTH(1-34) (rat PTH2 receptor; rat receptor response relative to human PTH2 receptor response measured in parallel): 28 ± 4%
